Test results: US7001748
Each block holds one substance with its values, some of them ahead of it.

Columns and labels:
[1] = molecular target: M2(4) (derivative of M2 containing the C-terminal linker of DEBS module 4; plasmid pST179) (UniProt Q03133); assay: fit of the rate of tetraketide formation against (5)M3+TE concentration (0.5-5 µM) at fixed 0.5 µM M2(4); kinetic saturation curve
[2] = molecular target: (5)M5+TE (M5+TE; plasmid pRSG46) (UniProt Q03133); assay: cell-based or functional assay
[3] = molecular target: M2 (module 2 of DEBS with the natural C-terminal linker for module 2; plasmid pBP19) (UniProt Q03133); assay: fit of the rate of tetraketide formation against M3+TE concentration (0.4-4 µM) at fixed 1.0 µM M2; kinetic saturation curve

Kd [1]: 2.1 µM
Substance: (5)M3+TE (derivative of M3+TE where the natural N-terminal linker has been replaced with the N-terminal linker of module 5 of DEBS; plasmid pST132) (from UniProt Q03133 2-41; Q03132 33-1467; Q03133 2960-3166) (enzyme)

maximal rate increase in the elongation of 4a versus 2a [2]: > 40 fold
Substance: acyl-ACP4(4) adduct 4a ((2S,3R)-diketide on ACP4(4)) (from UniProt Q03132 3398-3567)

Kd [3]: 1.1 µM
Substance: M3+TE (module 3 of DEBS with its own N-terminal linker and with the thioesterase fused to the C-terminus; plasmid pRSG34) (from UniProt Q03132 33-1467; Q03133 2960-3166) (enzyme)
